Test results published in IntAct's records for PubMed 24944246.

B1: Krueppel-like factor 10 (Homo sapiens), Q13118 (parent)
chain: MLNFGASLQQTAEERMEMISERPKESMYSWNKTAEKSDFEAVEALMSMSCSWKSDFKKYVENRPVTPVSDLSEEENLLPGTPDFHTIPAFCLTPPYSPSDFEPSQVSNLMAPAPSTVHFKSLSDTAKPHIAAPFKEEEKSPVSAPKLPKAQATSVIRHTADAQLCNHQTCPMKAASILNYQNNSFRRRTHLNVEAARKNIPCAAVSPNRSKCERNTVADVDEKASAALYDFSVPSSETVICRSQPAPVSPQQKSVLVSPPAVSAGGVPPMPVICQMVPLPANNPVVTTVVPSTPPSQPPAVCPPVVFMGTQVPKGAVMFVVPQPVVQSSKPPVVSPNGTRLSPIAPAPGFSPSAAKVTPQIDSSRIRSHICSHPGCGKTYFKSSHLKAHTRTHTGEKPFSCSWKGCERRFARSDELSRHRRTHTGEKKFACPMCDRRFMRSDHLTKHARRHLSAKKLPNWQMEVSKLNDIALPPTPAPTQ
partner: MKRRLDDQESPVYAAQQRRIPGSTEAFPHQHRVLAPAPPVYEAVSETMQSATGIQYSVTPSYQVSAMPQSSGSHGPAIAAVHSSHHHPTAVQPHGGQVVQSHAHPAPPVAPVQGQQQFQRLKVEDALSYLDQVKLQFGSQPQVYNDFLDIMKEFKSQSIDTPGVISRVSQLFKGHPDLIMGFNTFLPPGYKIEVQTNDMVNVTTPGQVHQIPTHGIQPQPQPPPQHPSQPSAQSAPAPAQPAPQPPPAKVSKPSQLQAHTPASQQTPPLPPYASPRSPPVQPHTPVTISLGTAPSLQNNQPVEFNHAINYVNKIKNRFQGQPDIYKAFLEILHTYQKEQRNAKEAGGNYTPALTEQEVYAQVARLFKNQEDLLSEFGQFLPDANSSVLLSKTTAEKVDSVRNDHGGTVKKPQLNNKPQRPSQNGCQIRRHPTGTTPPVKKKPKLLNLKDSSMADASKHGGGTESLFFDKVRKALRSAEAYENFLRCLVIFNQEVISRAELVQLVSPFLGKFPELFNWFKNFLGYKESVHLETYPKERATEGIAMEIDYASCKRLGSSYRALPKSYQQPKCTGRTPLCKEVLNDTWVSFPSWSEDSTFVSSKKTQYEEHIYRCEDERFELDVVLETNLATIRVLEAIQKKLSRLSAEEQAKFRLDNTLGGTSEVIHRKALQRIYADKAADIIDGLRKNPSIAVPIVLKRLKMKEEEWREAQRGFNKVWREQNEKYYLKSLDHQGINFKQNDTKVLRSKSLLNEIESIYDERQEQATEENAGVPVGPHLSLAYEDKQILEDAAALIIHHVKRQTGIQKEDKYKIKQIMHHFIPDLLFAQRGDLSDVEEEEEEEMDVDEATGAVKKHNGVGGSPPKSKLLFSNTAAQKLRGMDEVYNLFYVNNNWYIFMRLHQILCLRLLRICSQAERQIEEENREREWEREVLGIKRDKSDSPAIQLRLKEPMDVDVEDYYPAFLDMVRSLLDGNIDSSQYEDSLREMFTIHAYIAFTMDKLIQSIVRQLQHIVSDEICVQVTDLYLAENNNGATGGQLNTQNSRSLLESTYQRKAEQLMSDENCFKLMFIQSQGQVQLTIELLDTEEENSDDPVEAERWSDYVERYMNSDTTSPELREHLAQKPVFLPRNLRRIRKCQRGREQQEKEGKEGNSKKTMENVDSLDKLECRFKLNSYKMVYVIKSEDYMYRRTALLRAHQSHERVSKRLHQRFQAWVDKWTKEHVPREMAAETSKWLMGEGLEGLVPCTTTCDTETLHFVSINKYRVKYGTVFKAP

Variants of: B1
Conditions: with sin3a_human SIN3A

effect of a mutation on the interaction | Variant
disrupting interaction strength | E40P;A41P
